This note sets out measurements from publication PMC4052767.

A word on the Kd: it is the equilibrium constant for the complex coming apart. Low values mean higher affinity, high ones lower affinity.

Hat1p/Hat2p/H4_(1-48) complex (yeast (Saccharomyces cerevisiae) | yeast), sequence (Q12341 1-320, chain 1 of 3): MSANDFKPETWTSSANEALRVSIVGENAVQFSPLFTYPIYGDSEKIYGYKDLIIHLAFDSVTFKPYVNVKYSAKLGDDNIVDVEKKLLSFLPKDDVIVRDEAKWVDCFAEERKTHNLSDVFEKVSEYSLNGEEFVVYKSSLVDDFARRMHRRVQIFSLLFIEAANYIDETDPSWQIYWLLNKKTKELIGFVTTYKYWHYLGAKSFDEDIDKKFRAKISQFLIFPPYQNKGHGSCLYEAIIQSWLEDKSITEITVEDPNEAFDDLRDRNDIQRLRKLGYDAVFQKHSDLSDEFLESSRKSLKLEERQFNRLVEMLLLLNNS
Hat1p/Hat2p/H4_(1-48) complex (yeast (Saccharomyces cerevisiae) | yeast), sequence (P39984 whole entry, chain 2 of 3, further chain, the tested form may be a part): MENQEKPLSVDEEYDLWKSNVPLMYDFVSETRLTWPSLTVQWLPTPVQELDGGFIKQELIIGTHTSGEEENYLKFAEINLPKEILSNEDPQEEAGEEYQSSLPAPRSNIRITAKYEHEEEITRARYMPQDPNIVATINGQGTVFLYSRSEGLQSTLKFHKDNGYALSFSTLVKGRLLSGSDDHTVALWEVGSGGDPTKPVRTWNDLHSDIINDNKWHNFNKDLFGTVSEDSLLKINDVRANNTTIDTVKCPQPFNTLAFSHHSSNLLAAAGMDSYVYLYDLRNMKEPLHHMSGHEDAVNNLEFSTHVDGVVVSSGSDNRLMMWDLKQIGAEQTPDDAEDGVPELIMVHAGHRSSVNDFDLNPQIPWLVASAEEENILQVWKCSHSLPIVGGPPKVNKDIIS
Hat1p/Hat2p/H4_(1-48) complex (yeast (Saccharomyces cerevisiae) | yeast), sequence (P02309 2-49, chain 3 of 3, further chain): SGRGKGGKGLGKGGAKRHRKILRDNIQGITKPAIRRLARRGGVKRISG

The target in the experiment is Hat1p/Hat2p/H4_(1-48) complex (yeast (Saccharomyces cerevisiae) | yeast) (UniProt Q12341). Briefly: ITC.
Substance “H3 peptide (residues 1-15), unmodified (from UniProt P61830 2-16)” registered a Kd of 0.34 µM.

H3K4me1 peptide gave a Kd of 2.48 µM.

In the case of H3K4me2 peptide, the Kd came out at 4.78 µM. Compared with the last substance, the Kd is about 1.9-fold higher.

With H3K4me3 peptide, the Kd stood at 11.6 µM.
